The record followed here is paper PMC6644751 (2018).

Test in all cases: HSQC-NMR titration
The target in assay [1] is T1, S100B (Homo sapiens, UniProt P04271).
T1 chain: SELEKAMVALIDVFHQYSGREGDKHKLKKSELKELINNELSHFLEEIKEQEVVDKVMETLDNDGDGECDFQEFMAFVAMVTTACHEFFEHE

The target of assay [2] is T1, S100B.
Assay [3] deals with T2, S100A11 (Homo sapiens, UniProt P31949).
T2 chain: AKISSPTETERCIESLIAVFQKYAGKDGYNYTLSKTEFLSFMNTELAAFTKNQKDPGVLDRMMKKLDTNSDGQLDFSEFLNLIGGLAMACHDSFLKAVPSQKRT

Read-outs that look alike come from different tables or passages of the source.

B1: S100A11 (protein)
chain: T2 chain
modifications: Ca2+, monomers after urea denaturation/renaturation
One may read the Kd as the constant that tells how readily two partners part at equilibrium. On to B1, for which the Kd was approximately 2800 nM in assay [1] and approximately 2650 nM in assay [2].

B2: S100B (protein)
chain: T1 chain
modifications: Ca2+, monomers after urea denaturation/renaturation
As for B2, the Kd in assay [3] was approximately 2500 nM.
